Test results reported in PMC10786891, “Massively parallel profiling of RNA-targeting CRISPR-Cas13d”.

B1: target 1 insA 3' of 7,insC 3' of 1 (mixed)
RNA 1: CACCCGUGCAAAAAUGCAGGGGUCUAAAACUGAGCGGAUAACCUCUCUAUGG
RNA 2: GGGAAUGGAUCCACAUCUACGAAUUCGUACCAUAGAGAGGUUAUCACGCUCACCCGAGAUCGGAAGAGCACACGU
B2: target 1 complement block 1-11 (mixed)
RNA 1: CACCCGUGCAAAAAUGCAGGGGUCUAAAACUGAGCGGAUAACCUCUCUAUGG
RNA 2: GGGAAUGGAUCCACAUCUACGAAUUCGUACCAUAGAGAGGAAUAGGCGAGUCCGAGAUCGGAAGAGCACACGU
B3: target 1 insU 3' of 20,insU 3' of 2 (mixed)
RNA 1: CACCCGUGCAAAAAUGCAGGGGUCUAAAACUGAGCGGAUAACCUCUCUAUGG
RNA 2: GGGAAUGGAUCCACAUCUACGAAUUCGUACCAUUAGAGAGGUUAUCCGCUCUACCGAGAUCGGAAGAGCACACGU
B4: target 1 insU 3' of 18,insU 3' of 2 (mixed)
RNA 1: CACCCGUGCAAAAAUGCAGGGGUCUAAAACUGAGCGGAUAACCUCUCUAUGG
RNA 2: GGGAAUGGAUCCACAUCUACGAAUUCGUACCAUAUGAGAGGUUAUCCGCUCUACCGAGAUCGGAAGAGCACACGU
B5: target 1 C6U,A9G (mixed)
RNA 1: CACCCGUGCAAAAAUGCAGGGGUCUAAAACUGAGCGGAUAACCUCUCUAUGG
RNA 2: GGGAAUGGAUCCACAUCUACGAAUUCGUACCAUAGAGAGGUUGUCUGCUCACCGAGAUCGGAAGAGCACACGU
B6: target 1 complement block 2-11 (mixed)
RNA 1: CACCCGUGCAAAAAUGCAGGGGUCUAAAACUGAGCGGAUAACCUCUCUAUGG
RNA 2: GGGAAUGGAUCCACAUCUACGAAUUCGUACCAUAGAGAGGAAUAGGCGAGACCGAGAUCGGAAGAGCACACGU
B7: target 1 C7U,U8C (mixed)
RNA 1: CACCCGUGCAAAAAUGCAGGGGUCUAAAACUGAGCGGAUAACCUCUCUAUGG
RNA 2: GGGAAUGGAUCCACAUCUACGAAUUCGUACCAUAGAGAGGUUACUCGCUCACCGAGAUCGGAAGAGCACACGU
B8: target 1 insA 3' of 6,insU 3' of 5 (mixed)
RNA 1: CACCCGUGCAAAAAUGCAGGGGUCUAAAACUGAGCGGAUAACCUCUCUAUGG
RNA 2: GGGAAUGGAUCCACAUCUACGAAUUCGUACCAUAGAGAGGUUAUCCAGUCUCACCGAGAUCGGAAGAGCACACGU
B9: target 1 insC 3' of 19,insA 3' of 6 (mixed)
RNA 1: CACCCGUGCAAAAAUGCAGGGGUCUAAAACUGAGCGGAUAACCUCUCUAUGG
RNA 2: GGGAAUGGAUCCACAUCUACGAAUUCGUACCAUCAGAGAGGUUAUCCAGCUCACCGAGAUCGGAAGAGCACACGU
B10: target 1 insU 3' of 1,insU 3' of 1 (mixed)
RNA 1: CACCCGUGCAAAAAUGCAGGGGUCUAAAACUGAGCGGAUAACCUCUCUAUGG
RNA 2: GGGAAUGGAUCCACAUCUACGAAUUCGUACCAUAGAGAGGUUAUCCGCUCAUUCCGAGAUCGGAAGAGCACACGU
B11: target 1 insG 3' of 19,insA 3' of 12 (mixed)
RNA 1: CACCCGUGCAAAAAUGCAGGGGUCUAAAACUGAGCGGAUAACCUCUCUAUGG
RNA 2: GGGAAUGGAUCCACAUCUACGAAUUCGUACCAUGAGAGAGGAUUAUCCGCUCACCGAGAUCGGAAGAGCACACGU
B12: target 1 insA 3' of 15,insA 3' of 15 (mixed)
RNA 1: CACCCGUGCAAAAAUGCAGGGGUCUAAAACUGAGCGGAUAACCUCUCUAUGG
RNA 2: GGGAAUGGAUCCACAUCUACGAAUUCGUACCAUAGAGAAAGGUUAUCCGCUCACCGAGAUCGGAAGAGCACACGU
B13: target 1 G5U,G12U (mixed)
RNA 1: CACCCGUGCAAAAAUGCAGGGGUCUAAAACUGAGCGGAUAACCUCUCUAUGG
RNA 2: GGGAAUGGAUCCACAUCUACGAAUUCGUACCAUAGAGAGUUUAUCCUCUCACCGAGAUCGGAAGAGCACACGU
B14: target 1 insG 3' of 20,insC 3' of 20 (mixed)
RNA 1: CACCCGUGCAAAAAUGCAGGGGUCUAAAACUGAGCGGAUAACCUCUCUAUGG
RNA 2: GGGAAUGGAUCCACAUCUACGAAUUCGUACCAGCUAGAGAGGUUAUCCGCUCACCGAGAUCGGAAGAGCACACGU
B15: target 1 U8C,G15U (mixed)
RNA 1: CACCCGUGCAAAAAUGCAGGGGUCUAAAACUGAGCGGAUAACCUCUCUAUGG
RNA 2: GGGAAUGGAUCCACAUCUACGAAUUCGUACCAUAGAUAGGUUACCCGCUCACCGAGAUCGGAAGAGCACACGU
B16: target 1 complement block 9-11 (mixed)
RNA 1: CACCCGUGCAAAAAUGCAGGGGUCUAAAACUGAGCGGAUAACCUCUCUAUGG
RNA 2: GGGAAUGGAUCCACAUCUACGAAUUCGUACCAUAGAGAGGAAUUCCGCUCACCGAGAUCGGAAGAGCACACGU
B17: target 1 insC 3' of 18,insC 3' of 13 (mixed)
RNA 1: CACCCGUGCAAAAAUGCAGGGGUCUAAAACUGAGCGGAUAACCUCUCUAUGG
RNA 2: GGGAAUGGAUCCACAUCUACGAAUUCGUACCAUACGAGAGCGUUAUCCGCUCACCGAGAUCGGAAGAGCACACGU
B18: target 1 insA 3' of 10,insU 3' of 6 (mixed)
RNA 1: CACCCGUGCAAAAAUGCAGGGGUCUAAAACUGAGCGGAUAACCUCUCUAUGG
RNA 2: GGGAAUGGAUCCACAUCUACGAAUUCGUACCAUAGAGAGGUUAAUCCUGCUCACCGAGAUCGGAAGAGCACACGU
B19: target 1 insC 3' of 22,insC 3' of 11 (mixed)
RNA 1: CACCCGUGCAAAAAUGCAGGGGUCUAAAACUGAGCGGAUAACCUCUCUAUGG
RNA 2: GGGAAUGGAUCCACAUCUACGAAUUCGUACCCAUAGAGAGGUCUAUCCGCUCACCGAGAUCGGAAGAGCACACGU
B20: target 1 insC 3' of 14,insC 3' of 8 (mixed)
RNA 1: CACCCGUGCAAAAAUGCAGGGGUCUAAAACUGAGCGGAUAACCUCUCUAUGG
RNA 2: GGGAAUGGAUCCACAUCUACGAAUUCGUACCAUAGAGACGGUUAUCCCGCUCACCGAGAUCGGAAGAGCACACGU
B21: target 1 insC 3' of 20,insC 3' of 17 (mixed)
RNA 1: CACCCGUGCAAAAAUGCAGGGGUCUAAAACUGAGCGGAUAACCUCUCUAUGG
RNA 2: GGGAAUGGAUCCACAUCUACGAAUUCGUACCACUAGCAGAGGUUAUCCGCUCACCGAGAUCGGAAGAGCACACGU
B22: target 1 insU 3' of 14,insG 3' of 4 (mixed)
RNA 1: CACCCGUGCAAAAAUGCAGGGGUCUAAAACUGAGCGGAUAACCUCUCUAUGG
RNA 2: GGGAAUGGAUCCACAUCUACGAAUUCGUACCAUAGAGAUGGUUAUCCGCGUCACCGAGAUCGGAAGAGCACACGU
B23: target 1 A1G,U19A (mixed)
RNA 1: CACCCGUGCAAAAAUGCAGGGGUCUAAAACUGAGCGGAUAACCUCUCUAUGG
RNA 2: GGGAAUGGAUCCACAUCUACGAAUUCGUACCAAAGAGAGGUUAUCCGCUCGCCGAGAUCGGAAGAGCACACGU
B24: target 1 insG 3' of 16,insA 3' of 12 (mixed)
RNA 1: CACCCGUGCAAAAAUGCAGGGGUCUAAAACUGAGCGGAUAACCUCUCUAUGG
RNA 2: GGGAAUGGAUCCACAUCUACGAAUUCGUACCAUAGAGGAGGAUUAUCCGCUCACCGAGAUCGGAAGAGCACACGU
B25: target 1 A1C,A16C (mixed)
RNA 1: CACCCGUGCAAAAAUGCAGGGGUCUAAAACUGAGCGGAUAACCUCUCUAUGG
RNA 2: GGGAAUGGAUCCACAUCUACGAAUUCGUACCAUAGCGAGGUUAUCCGCUCCCCGAGAUCGGAAGAGCACACGU
B26: target 1 insG 3' of 3,insA 3' of 3 (mixed)
RNA 1: CACCCGUGCAAAAAUGCAGGGGUCUAAAACUGAGCGGAUAACCUCUCUAUGG
RNA 2: GGGAAUGGAUCCACAUCUACGAAUUCGUACCAUAGAGAGGUUAUCCGCUGACACCGAGAUCGGAAGAGCACACGU
B27: target 1 U3G,A20C (mixed)
RNA 1: CACCCGUGCAAAAAUGCAGGGGUCUAAAACUGAGCGGAUAACCUCUCUAUGG
RNA 2: GGGAAUGGAUCCACAUCUACGAAUUCGUACCCUAGAGAGGUUAUCCGCGCACCGAGAUCGGAAGAGCACACGU
B28: target 1 U3A,A20C (mixed)
RNA 1: CACCCGUGCAAAAAUGCAGGGGUCUAAAACUGAGCGGAUAACCUCUCUAUGG
RNA 2: GGGAAUGGAUCCACAUCUACGAAUUCGUACCCUAGAGAGGUUAUCCGCACACCGAGAUCGGAAGAGCACACGU

What follows are binders tested against T1, EsCas13d, nuclease-dead (Eubacterium siraeum, UniProt B0MS50, R295A;H300A;R849A;H854A) (assay: crRNA (strand 1, pre-loaded); Mg2+; 40 mM Tris-HCl pH 7.5, 150 mM NaCl, 6 mM MgCl2, 1 mM DTT, 0.1% Tween-20, 0.2 mg/ml BSA; 25 C; 10 min per concentration, then washed). Details: tags: His6-TwinStrep-SUMO cleaved; N-terminal SNAP kept (SNAP-Surface 488); label: 3' end held by stalled T7 RNA polymerase.
T1 sequence: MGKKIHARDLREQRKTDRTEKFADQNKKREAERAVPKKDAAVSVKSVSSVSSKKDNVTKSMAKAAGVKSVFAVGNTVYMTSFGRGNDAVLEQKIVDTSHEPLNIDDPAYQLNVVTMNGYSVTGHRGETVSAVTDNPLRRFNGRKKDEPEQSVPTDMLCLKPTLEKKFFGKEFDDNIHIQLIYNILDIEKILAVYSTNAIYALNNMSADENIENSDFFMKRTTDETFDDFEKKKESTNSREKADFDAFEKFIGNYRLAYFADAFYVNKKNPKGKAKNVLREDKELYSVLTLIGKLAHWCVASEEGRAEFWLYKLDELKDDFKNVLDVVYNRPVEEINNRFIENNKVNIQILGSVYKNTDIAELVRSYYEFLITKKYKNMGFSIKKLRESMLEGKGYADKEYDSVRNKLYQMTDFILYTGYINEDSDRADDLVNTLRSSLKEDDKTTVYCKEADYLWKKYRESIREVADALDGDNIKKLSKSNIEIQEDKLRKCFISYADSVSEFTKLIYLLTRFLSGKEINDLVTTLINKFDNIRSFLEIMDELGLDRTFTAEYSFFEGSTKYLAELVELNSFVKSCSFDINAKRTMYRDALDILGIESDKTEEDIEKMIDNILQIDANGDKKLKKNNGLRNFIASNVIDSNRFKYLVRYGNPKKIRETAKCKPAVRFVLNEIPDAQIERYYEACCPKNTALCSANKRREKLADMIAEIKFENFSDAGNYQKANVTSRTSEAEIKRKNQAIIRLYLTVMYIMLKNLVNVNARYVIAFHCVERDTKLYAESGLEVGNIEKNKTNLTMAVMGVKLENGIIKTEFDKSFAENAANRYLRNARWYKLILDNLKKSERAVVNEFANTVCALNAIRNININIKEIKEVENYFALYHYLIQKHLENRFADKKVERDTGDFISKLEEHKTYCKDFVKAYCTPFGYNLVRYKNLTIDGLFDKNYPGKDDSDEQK
B1 showed a Kd of 5.8 ± 0.4 nM.
With B2 the Kd was 13.3 ± 0.5 nM.
B3 gave a Kd of 16.3 ± 1.6 nM.
B4 showed a Kd of 25.8 ± 2.4 nM.
Work on B5 yielded a Kd of 14.2 ± 0.9 nM.
Binder B6 has a Kd of 12.3 ± 0.33 nM.
B7 was tested, and the Kd was 8.7 ± 0.5 nM.
For B8, the Kd was 41 ± 5 nM.
B9 was tested, and the Kd was 38.2 ± 2.2 nM.
B10 gave a Kd of 11.3 ± 0.9 nM.
With B11 the Kd was roughly 80 nM.
B12 was tested, and the Kd was 6.1 ± 0.5 nM.
B13 was tested, and the Kd was 41 ± 7 nM.
B14 showed a Kd of 50 ± 7 nM.
B15 showed a Kd of 34.6 ± 2.5 nM.
Binder B16 has a Kd of 22.9 ± 1.5 nM.
Work on B17 yielded a Kd of 49 ± 6 nM.
Work on B18 yielded a Kd of 13.9 ± 0.5 nM.
With B19 the Kd was 50 ± 6 nM.
In the case of B20, the Kd is reported as 48 ± 7 nM.
Work on B21 yielded a Kd of 4.9 ± 0.6 nM.
With B22 the Kd was 31.8 ± 2.8 nM.
B23 gave a Kd of 29 ± 4 nM.
B24 showed a Kd of 45 ± 9 nM.
Binder B25 has a Kd of 42 ± 9 nM.
B26 was tested, and the Kd was 6.1 ± 0.4 nM.
In the case of B27, the Kd is reported as 28.1 ± 2.2 nM.
Work on B28 yielded a Kd of 26.3 ± 1.6 nM.
